Measured values reported in the RNAGym collection of RNA variant scans (doi:10.7554/elife.90254).

B1: LINE1-full (parent)
chain: UACGUAGGUGGUUUUCCCCUGAUAGUGCUAAGGGGGCCUGGAAGUUUGGACUGGGCAGAGCUCAACACAGCGUGGCAAAGUGGCUGUGGCUAGACUGCCUCUCUGGAUUCCUCGUCACUCAGCAGGGCAUCUCUGAGAGAAAUGCC

Variants of: B1
Experiment: self-cleavage, relative activity (ratio to wild type); higher = more cleavage; in vitro, sequencing; the parent is a self-cleaving ribozyme
In the case of U13C G36C, the self-cleavage is reported as 0.96.
U13C C63U showed a self-cleavage of 0.32.
Work on U13C A129G yielded a self-cleavage of 1.52.
With U13C A129U the self-cleavage was 1.13.
U13A U143C showed a self-cleavage of 1.51.
U13G U47A gave a self-cleavage of 0.86.
U13C G72U showed a self-cleavage of 1.21.
For U13C C111A, the self-cleavage was 1.57.
Variant U13C U108A has a self-cleavage of 0.91.
U13C U108C showed a self-cleavage of 1.37.
For U13C U14A, the self-cleavage was 0.79.
In the case of U13C U14C, the self-cleavage is reported as 1.13.
Variant U13C U130G has a self-cleavage of 0.95.
With U13C G70C the self-cleavage was 0.15.
U13C U20A showed a self-cleavage of 1.07.
U13C A107U gave a self-cleavage of 1.14.
Variant U13G U115C has a self-cleavage of 1.39.
Work on U14A A57G yielded a self-cleavage of 0.75.
With U14A A57C the self-cleavage was 0.04.
In the case of U14A A57U, the self-cleavage is reported as 0.03.
U13C A42U showed a self-cleavage of 0.88.
With U13C A42G the self-cleavage was 1.19.
For U13C U23A, the self-cleavage was 1.09.
For U13C G82A, the self-cleavage was 0.72.
With U13C C120G the self-cleavage was 1.48.
For U13C C110A, the self-cleavage was 1.29.
U13C U46C showed a self-cleavage of 1.17.
U13C C56U gave a self-cleavage of 0.15.
For U13C A79U, the self-cleavage was 1.53.
U13C A79G showed a self-cleavage of 1.25.
Work on U14A A42G yielded a self-cleavage of 0.98.
For U14A A42C, the self-cleavage was 0.97.
Work on U14A A42U yielded a self-cleavage of 0.47.
In the case of U13G A31G, the self-cleavage is reported as 0.39.
Work on U13G U73A yielded a self-cleavage of 2.54.
With U13C G41U the self-cleavage was 1.14.
For U13C A94C, the self-cleavage was 0.11.
With U13C A94U the self-cleavage was 0.42.
U13C A142G showed a self-cleavage of 1.3.
U13G U23C showed a self-cleavage of 0.76.
For U13G G34U, the self-cleavage was 1.2.
For U13C U143G, the self-cleavage was 2.3.
U13C U143C gave a self-cleavage of 1.06.
For U14A A50U, the self-cleavage was 0.18.
For U13G A57U, the self-cleavage was 0.13.
With U13G A57G the self-cleavage was 1.05.
In the case of U13C U96C, the self-cleavage is reported as 0.17.
For U13C U96A, the self-cleavage was 0.11.
For U13G U143A, the self-cleavage was 1.33.
For U13C U87C, the self-cleavage was 0.24.
For U13C U87A, the self-cleavage was 0.1.
U13G A30U showed a self-cleavage of 0.56.
Work on U13G A30G yielded a self-cleavage of 1.27.
For U13C G27A, the self-cleavage was 0.85.
In the case of U13C G125U, the self-cleavage is reported as 1.4.
With U13C G44A the self-cleavage was 0.75.
With U13C G32A the self-cleavage was 0.99.
Work on U13C G32U yielded a self-cleavage of 1.2.
Work on U13C G32C yielded a self-cleavage of 0.7.
Variant U13C U85C has a self-cleavage of 0.18.
For U13C U85G, the self-cleavage was 0.29.
Work on U13C A22G yielded a self-cleavage of 1.11.
In the case of U13C C146U, the self-cleavage is reported as 1.64.
Work on U13G G105A yielded a self-cleavage of 0.74.
With U13C U81A the self-cleavage was 1.56.
In the case of U13C A31G, the self-cleavage is reported as 0.84.
Work on U13C A31C yielded a self-cleavage of 0.97.
Variant U13A U134G has a self-cleavage of 1.34.
U13A U134A gave a self-cleavage of 0.51.
Variant U13C G83U has a self-cleavage of 0.27.
U13C C19U gave a self-cleavage of 1.01.
U13C U109C showed a self-cleavage of 1.
For U13C U109A, the self-cleavage was 1.11.
U13C U39G showed a self-cleavage of 1.54.
U13C U39A showed a self-cleavage of 1.33.
Variant U13G U134A has a self-cleavage of 1.06.
For U13G U96C, the self-cleavage was 0.14.
With U13C A64G the self-cleavage was 0.35.
For U13C G55A, the self-cleavage was 0.23.
For U13C G55U, the self-cleavage was 0.22.
U13C G126A gave a self-cleavage of 1.22.
In the case of U13C U104A, the self-cleavage is reported as 1.18.
With U13C U104C the self-cleavage was 1.28.
U13C U45C showed a self-cleavage of 1.16.
With U13C U45A the self-cleavage was 0.76.
U13C G33A showed a self-cleavage of 0.81.
Variant U13C A138G has a self-cleavage of 1.6.
In the case of U13C A141U, the self-cleavage is reported as 1.57.
In the case of U13C A141G, the self-cleavage is reported as 1.18.
U13C A141C showed a self-cleavage of 1.59.
In the case of U13C U15A, the self-cleavage is reported as 0.79.
In the case of U13C U15G, the self-cleavage is reported as 0.75.
With U13C G139A the self-cleavage was 0.92.
For U13C G25A, the self-cleavage was 1.31.
With U13C G58C the self-cleavage was 0.08.
For U13G U100C, the self-cleavage was 1.17.
U13C A65C gave a self-cleavage of 0.15.
U13C A65U showed a self-cleavage of 0.2.
With U13C U47G the self-cleavage was 0.81.
Work on U13C U47A yielded a self-cleavage of 1.02.
U13C U29C showed a self-cleavage of 1.35.
U13C U29A gave a self-cleavage of 0.95.
In the case of U13C A69G, the self-cleavage is reported as 0.5.
U13C C38U showed a self-cleavage of 1.15.
U13C C61U gave a self-cleavage of 0.
U13G U15C gave a self-cleavage of 1.47.
Work on U13C G35U yielded a self-cleavage of 0.75.
For U13C G35C, the self-cleavage was 1.24.
U13C A124U gave a self-cleavage of 1.28.
In the case of U13C A124C, the self-cleavage is reported as 1.67.
Variant U13C U100G has a self-cleavage of 1.63.
Work on U14A A22U yielded a self-cleavage of 1.6.
In the case of U13C G48U, the self-cleavage is reported as 0.91.
U13C U26C gave a self-cleavage of 1.01.
Variant U13C U26A has a self-cleavage of 0.97.
Variant U13C C68U has a self-cleavage of 0.17.
U13C A24G showed a self-cleavage of 1.16.
U13G U108C gave a self-cleavage of 1.31.
U13G U108G showed a self-cleavage of 1.2.
U13C A50G gave a self-cleavage of 0.63.
U13G A79G showed a self-cleavage of 2.7.
With U13C G88U the self-cleavage was 0.09.
With U13G A138G the self-cleavage was 1.45.
Work on U13C C28U yielded a self-cleavage of 0.64.
Work on U13A U130A yielded a self-cleavage of 1.15.
For U13C G34U, the self-cleavage was 1.99.
For U13C G114U, the self-cleavage was 1.65.
In the case of U13C G114A, the self-cleavage is reported as 1.16.
With U13C A92G the self-cleavage was 0.
Work on U13C A92U yielded a self-cleavage of 0.68.
U13G A117C showed a self-cleavage of 0.65.
In the case of U13C U132G, the self-cleavage is reported as 1.02.
In the case of U13C U119A, the self-cleavage is reported as 1.15.
Work on U13C U119G yielded a self-cleavage of 1.28.
In the case of U13G U46C, the self-cleavage is reported as 1.33.
Variant U13G A107G has a self-cleavage of 1.12.
In the case of U13G A107U, the self-cleavage is reported as 1.58.
U13C G93A showed a self-cleavage of 0.17.
Work on U13C G93U yielded a self-cleavage of 0.03.
U13G C99U gave a self-cleavage of 0.69.
In the case of U13C U134C, the self-cleavage is reported as 1.21.
In the case of U13G U20A, the self-cleavage is reported as 0.69.
Work on U13G A69G yielded a self-cleavage of 0.67.
With U13C A67U the self-cleavage was 0.16.
With U13G C145U the self-cleavage was 1.16.
Variant U13G U119A has a self-cleavage of 1.8.
For U13C U52C, the self-cleavage was 1.06.
U13C U52A showed a self-cleavage of 1.44.
U13G U102C gave a self-cleavage of 0.66.
Work on U13G A59G yielded a self-cleavage of 0.12.
Work on U13G A141G yielded a self-cleavage of 0.94.
For U13C C99G, the self-cleavage was 0.39.
U13C U112A gave a self-cleavage of 1.05.
Variant U13C C118U has a self-cleavage of 0.99.
With U13C C123A the self-cleavage was 1.42.
For U13C G86A, the self-cleavage was 0.13.
Variant U13C G127U has a self-cleavage of 1.36.
With U13C G127C the self-cleavage was 1.47.
In the case of U13C C51G, the self-cleavage is reported as 1.44.
Variant U13C C113U has a self-cleavage of 1.
U13C C113A showed a self-cleavage of 0.44.
U13C C17A gave a self-cleavage of 1.4.
Variant U13G C113A has a self-cleavage of 1.43.
U13G A142G showed a self-cleavage of 1.41.
Variant U13C C131U has a self-cleavage of 1.79.
U13C C37G gave a self-cleavage of 1.03.
In the case of U13C C37U, the self-cleavage is reported as 1.33.
